Earlier results in patent publication US20200069786A1, “COMPOSITION AND PROCESS FOR PREPARING VACCINE” (TREOS BIO ZRT., priority 2018, published 2020).
Where two headings read alike, the source gives them in different places.

Test system: TSA
[1] = TSA expression rate in BLADDER cancer
[2] = TSA expression rate in GASTRIC cancer
[3] = TSA expression rate in PROSTATE cancer
[4] = TSA expression rate in HEAD and NECK
[5] = TSA expression rate in LUNG cancer
[6] = TSA expression rate in MELANOMA
[7] = TSA expression rate in LEUKEMIAS

B1: ACRBP (protein, UniProt Q8NEB7 26-543, looked up)
Acrosin-binding protein: QDSTQASTPGSPLSPTEYERFFALLTPTWKAETTCRLRATHGCRNPTLVQLDQYENHGLVPDGAVCSNLPYASWFESFCQFTHYRCSNHVYYAKRVLCSQPVSILSPNTLKEIEASAEVSPTTMTSPISPHFTVTERQTFQPWPERLSNNVEELLQSSLSLGGQEQAPEHKQEQGVEHRQEPTQEHKQEEGQKQEEQEEEQEEEGKQEEGQGTKEGREAVSQLQTDSEPKFHSESLSSNPSSFAPRVREVESTPMIMENIQELIRSAQEIDEMNEIYDENSYWRNQNPGSLLQLPHTEALLVLCYSIVENTCIITPTAKAWKYMEEEILGFGKSVCDSLGRRHMSTCALCDFCSLKLEQCHSEASLQRQQCDTSHKTPFVSPLLASQSLSIGNQVGSPESGRFYGLDLYGGLHMDFWCARLATKGCEDVRVSGWLQTEFLSFQDGDFPTKICDTDYIQYPNYCSFKSQQCLMRNRNRKVSRMRCLQNETYSALSPGKSEDVVLRWSQEFSTLTLGQFG
BREAST
  TSA Expression Rate (ER): 40%
HCC
  TSA Expression Rate (ER): 70%
LUNG
  TSA Expression Rate (ER): 20%
OVARIAN
  TSA Expression Rate (ER): 65%
[1]
  Expression Rate (ER) %: 28%
TSA expression rate in CRC
  Expression Rate (ER) %: 63%
[2]
  Expression Rate (ER) %: 0%
TSA expression rate in Kidney
  Expression Rate (ER) %: 0%
[3]
  Expression Rate (ER) %: 4%

B2: TEKT5 (protein, UniProt Q96M29 1-485, looked up)
Tektin-5: MEFLGTTQTASYCGPKKCCGLTSLPAVQAPVIQECYQPYYLPGYRYLNSWRPSLFYKIANVQTCPDESTSTLRPPTILPTLRSALFSRYSPHDWDQSNQLQVRGAEASRLWASRLTDDSMRLLQDKDQLTHQMQEGTCRNLGQRLSDIGFWKSELSYELDRLLTENQNLETVKRRLECAANEVNCPLQVALECLYHREKRIGIDLVHDNVEKNLIREVDLLKCCQEQMRKLAQRIDIQMRDNRDAQHVLERDLEDKSSAQCIDEKCFNLRNTSDCISFFHGMEKIDGTISVPETWAKFSNDNIKHSQNMRANSIQLREEAEHLFETLSDQMWRQFTDTNLAFNARISEVTDVKNKLQTQLAKTLQEIFQAENTIMLLERSIMAKEGPLKVAQTRLECRTRRPNMELCRDIPQLKLVNEVFTIDDTLQTLKLRLRETQDTLQLLVMTKCRLEHELAIKANTLCIDKEKCMGMRKTFPCTPRLVGHT
HCC
  TSA Expression Rate (ER): 60%
TSA expression rate in CRC
  Expression Rate (ER) %: 50%
[2]
  Expression Rate (ER) %: 40%
[4]
  Expression Rate (ER) %: 0%
[5]
  Expression Rate (ER) %: 10%
[3]
  Expression Rate (ER) %: 11%

B3: WBP2NL (protein, UniProt Q6ICG8 1-309, looked up)
Postacrosomal sheath WW …: MAVNQSHTENRRGALIPNGESLLKRSPNVELSFPQRSEGSNVFSGRKTGTLFLTSYRVIFITSCSISDPMLSFMMPFDLMTNLTVEQPVFAANFIKGTIQAAPYGGWEGQATFKLVFRNGDAIEFAQLMVKAASAAARGFPLRTLNDWFSSMGIYVITGEGNMCTPQMPCSVIVYGAPPAGYGAPPPGYGAPPAGYGAQPVGNEGPPVGYRASPVRYGAPPLGYGAPPAGYGAPPLGYGAPPLGYGTPPLGYGAPPLGYGAPPAGNEGPPAGYRASPAGSGARPQESTAAQAPENEASLPSASSSQVHS
BREAST
  TSA Expression Rate (ER): 50%

B4: ATAD2 (protein, UniProt Q6PL18 1-1390, looked up)
ATPase family AAA …: MVVLRSSLELHNHSAASATGSLDLSSDFLSLEHIGRRRLRSAGAAQKKPAATTAKAGDGSSVKEVETYHRTRALRSLRKDAQNSSDSSFEKNVEITEQLANGRHFTRQLARQQADKKKEEHREDKVIPVTRSLRARNIVQSTEHLHEDNGDVEVRRSCRIRSRYSGVNQSMLFDKLITNTAEAVLQKMDDMKKMRRQRMRELEDLGVFNETEESNLNMYTRGKQKDIQRTDEETTDNQEGSVESSEEGEDQEHEDDGEDEDDEDDDDDDDDDDDDDDEDDEDEEDGEEENQKRYYLRQRKATVYYQAPLEKPRHQRKPNIFYSGPASPARPRYRLSSAGPRSPYCKRMNRRRHAIHSSDSTSSSSSEDEQHFERRRKRSRNRAINRCLPLNFRKDELKGIYKDRMKIGASLADVDPMQLDSSVRFDSVGGLSNHIAALKEMVVFPLLYPEVFEKFKIQPPRGCLFYGPPGTGKTLVARALANECSQGDKRVAFFMRKGADCLSKWVGESERQLRLLFDQAYQMRPSIIFFDEIDGLAPVRSSRQDQIHSSIVSTLLALMDGLDSRGEIVVIGATNRLDSIDPALRRPGRFDREFLFSLPDKEARKEILKIHTRDWNPKPLDTFLEELAENCVGYCGADIKSICAEAALCALRRRYPQIYTTSEKLQLDLSSINISAKDFEVAMQKMIPASQRAVTSPGQALSTVVKPLLQNTVDKILEALQRVFPHAEFRTNKTLDSDISCPLLESDLAYSDDDVPSVYENGLSQKSSHKAKDNFNFLHLNRNACYQPMSFRPRILIVGEPGFGQGSHLAPAVIHALEKFTVYTLDIPVLFGVSTTSPEETCAQVIREAKRTAPSIVYVPHIHVWWEIVGPTLKATFTTLLQNIPSFAPVLLLATSDKPHSALPEEVQELFIRDYGEIFNVQLPDKEERTKFFEDLILKQAAKPPISKKKAVLQALEVLPVAPPPEPRSLTAEEVKRLEEQEEDTFRELRIFLRNVTHRLAIDKRFRVFTKPVDPDEVPDYVTVIKQPMDLSSVISKIDLHKYLTVKDYLRDIDLICSNALEYNPDRDPGDRLIRHRACALRDTAYAIIKEELDEDFEQLCEEIQESRKKRGCSSSKYAPSYYHVMPKQNSTLVGDKRSDPEQNEKLKTPSTPVACSTPAQLKRKIRKKSNWYLGTIKKRRKISQAKDDSQNAIDHKIESDTEETQDTSVDHNETGNTGESSVEENEKQQNASESKLELRNNSNTCNIENELEDSRKTTACTELRDKIACNGDASSSQIIHISDENEGKEMCVLRMTRARRSQVEQQQLITVEKALAILSQPTPSLVVDHERLKNLLKTVVKKSQNYNIFQLENLYAVISQCIYRHRKDHDKTSLIQKMEQEVENFSCSR
BREAST
  TSA Expression Rate (ER): 52%
LUNG
  TSA Expression Rate (ER): 23%
TSA expression rate in CRC
  Expression Rate (ER) %: 58%
[2]
  Expression Rate (ER) %: 43%
[6]
  Expression Rate (ER) %: 0%
[3]
  Expression Rate (ER) %: 0%

B5: MAGE-B2 (protein, UniProt O15479 1-319, looked up)
Melanoma-associated antigen B2: MPRGQKSKLRAREKRRKARDETRGLNVPQVTEAEEEEAPCCSSSVSGGAASSSPAAGIPQEPQRAPTTAAAAAAGVSSTKSKKGAKSHQGEKNASSSQASTSTKSPSEDPLTRKSGSLVQFLLYKYKIKKSVTKGEMLKIVGKRFREHFPEILKKASEGLSVVFGLELNKVNPNGHTYTFIDKVDLTDEESLLSSWDFPRRKLLMPLLGVIFLNGNSATEEEIWEFLNMLGVYDGEEHSVFGEPWKLITKDLVQEKYLEYKQVPSSDPPRFQFLWGPRAYAETSKMKVLEFLAKVNGTTPCAFPTHYEEALKDEEKAGV
BRAIN
  TSA Expression Rate (ER): 0%
HCC
  TSA Expression Rate (ER): 61%
LUNG
  TSA Expression Rate (ER): 43%
[1]
  Expression Rate (ER) %: 0%
TSA expression rate in CRC
  Expression Rate (ER) %: 0%
[2]
  Expression Rate (ER) %: 0%
[4]
  Expression Rate (ER) %: 45%
TSA expression rate in Kidney
  Expression Rate (ER) %: 0%
[6]
  Expression Rate (ER) %: 22%
[3]
  Expression Rate (ER) %: 0%

B6: SAGE1 (protein, UniProt Q9NXZ1 1-904, looked up)
Sarcoma antigen 1: MQASPLQTSQPTPPEELHAAAYVFTNDGQQMRSDEVNLVATGHQSKKKHSRKSKRHSSSKRRKSMSSWLDKQEDAAVTHSICEERINNGQPVADNVLSTAPPWPDATIAHNIREERMENGQSRTDKVLSTAPPQLVHMAAAGIPSMSTRDLHSTVTHNIREERMENGQPQPDNVLSTGPTGLINMAATPIPAMSARDLYATVTHNVCEQKMENVQPAPDNVLLTLRPRRINMTDTGISPMSTRDPYATITYNVPEEKMEKGQPQPDNILSTASTGLINVAGAGTPAISTNGLYSTVPHNVCEEKMENDQPQPNNVLSTVQPVIIYLTATGIPGMNTRDQYATITHNVCEERVVNNQPLPSNALSTVLPGLAYLATADMPAMSTRDQHATIIHNLREEKKDNSQPTPDNVLSAVTPELINLAGAGIPPMSTRDQYATVNHHVHEARMENGQRKQDNVLSNVLSGLINMAGASIPAMSSRDLYATITHSVREEKMESGKPQTDKVISNDAPQLGHMAAGGIPSMSTKDLYATVTQNVHEERMENNQPQPSYDLSTVLPGLTYLTVAGIPAMSTRDQYATVTHNVHEEKIKNGQAASDNVFSTVPPAFINMAATGVSSMSTRDQYAAVTHNIREEKINNSQPAPGNILSTAPPWLRHMAAAGISSTITRDLYVTATHSVHEEKMTNGQQAPDNSLSTVPPGCINLSGAGISCRSTRDLYATVIHDIQEEEMENDQTPPDGFLSNSDSPELINMTGHCMPPNALDSFSHDFTSLSKDELLYKPDSNEFAVGTKNYSVSAGDPPVTVMSLVETVPNTPQISPAMAKKINDDIKYQLMKEVRRFGQNYERIFILLEEVQGSMKVKRQFVEFTIKEAARFKKVVLIQQLEKALKEIDSHCHLRKVKHMRKR
BRAIN
  TSA Expression Rate (ER): 0%
BREAST
  TSA Expression Rate (ER): 2%
THYROID
  TSA Expression Rate (ER): 0%
[1]
  Expression Rate (ER) %: 12%
TSA expression rate in Esophageal
  Expression Rate (ER) %: 22%
[2]
  Expression Rate (ER) %: 8%
[4]
  Expression Rate (ER) %: 17%
TSA expression rate in Kidney
  Expression Rate (ER) %: 5%
[5]
  Expression Rate (ER) %: 15%
[6]
  Expression Rate (ER) %: 5%

B7: MAGE-B1 (protein, UniProt P43366 1-347, looked up)
Melanoma-associated antigen B1: MPRGQKSKLRAREKRRKAREETQGLKVAHATAAEKEECPSSSPVLGDTPTSSPAAGIPQKPQGAPPTTTAAAAVSCTESDEGAKCQGEENASFSQATTSTESSVKDPVAWEAGMLMHFILRKYKMREPIMKADMLKVVDEKYKDHFTEILNGASRRLELVFGLDLKEDNPSGHTYTLVSKLNLTNDGNLSNDWDFPRNGLLMPLLGVIFLKGNSATEEEIWKFMNVLGAYDGEEHLIYGEPRKFITQDLVQEKYLKYEQVPNSDPPRYQFLWGPRAYAETTKMKVLEFLAKMNGATPRDFPSHYEEALRDEEERAQVRSSVRARRRTTATTFRARSRAPFSRSSHPM
BRAIN
  TSA Expression Rate (ER): 0%
HCC
  TSA Expression Rate (ER): 47%
[1]
  Expression Rate (ER) %: 0%
TSA expression rate in CRC
  Expression Rate (ER) %: 0%
TSA expression rate in Kidney
  Expression Rate (ER) %: 0%
[7]
  Expression Rate (ER) %: 5%
[5]
  Expression Rate (ER) %: 13%
[6]
  Expression Rate (ER) %: 19%
[3]
  Expression Rate (ER) %: 0%

B8: MAGE-B4 (protein, UniProt O15481 1-346, looked up)
Melanoma-associated antigen B4: MPRGQKSKLRAREKRQRTRGQTQDLKVGQPTAAEKEESPSSSSSVLRDTASSSLAFGIPQEPQREPPTTSAAAAMSCTGSDKGDESQDEENASSSQASTSTERSLKDSLTRKTKMLVQFLLYKYKMKEPTTKAEMLKIISKKYKEHFPEIFRKVSQRTELVFGLALKEVNPTTHSYILVSMLGPNDGNQSSAWTLPRNGLLMPLLSVIFLNGNCAREEEIWEFLNMLGIYDGKRHLIFGEPRKLITQDLVQEKYLEYQQVPNSDPPRYQFLWGPRAHAETSKMKVLEFLAKVNDTTPNNFPLLYEEALRDEEERAGARPRVAARRGTTAMTSAYSRATSSSSSQPM
BRAIN
  TSA Expression Rate (ER): 0%
[7]
  Expression Rate (ER) %: 3%
[5]
  Expression Rate (ER) %: 0%

B9: MART1 (protein, UniProt Q16655 1-118, looked up)
Melanoma antigen recognized …: MPREDAHFIYGYPKKGHGHSYTTAEEAAGIGILTVILGVLLLIGCWYCRRRNGYRALMDKSLHVGTQCALTRRCPQEGFDHRDSKVSLQEKNCEPVVPNAPPAYEKLSAEQSPPPYSP
BRAIN
  TSA Expression Rate (ER): 0%
THYROID
  TSA Expression Rate (ER): 0%
[6]
  Expression Rate (ER) %: 89%
